Reference: patent publication US20260266828A1, “BIOMARKERS FOR PREDICTING CANCER TREATMENT EFFICACY” (Arcus Biosciences, Inc., priority 2023, published 2026)

Tested on: metastatic (Stage IV) squamous or non-squamous NSCLC
Experiment: PFS in serum cytokine selected subsets of the trial of Example 2
Type: in vivo, human
Details: median
Protocol: Soluble biomarkers were retrospectively analyzed in baseline and on-treatment peripheral blood derived samples obtained from a subset of subjects enrolled in the clinical trial of Example 2. Baseline samples were obtained on day 1 of cycle 1 (CID1), prior to administration of any study drugs. On-treatment samples were obtained on day 1 of cycle 2 (C2D1), prior to administration of study drugs on that day.
Blood collected in serum separator tubes was allowed to clot for 30-60 minutes before centrifugation at 1300 g for 10 minutes to separate the serum. Serum was isolated and stored at −80° C. until cytokine analysis. Serum cytokines were quantified in multiplex assays using the Meso Scale Discovery platform following the manufacturer's protocol. Briefly, plates were coated with biotinylated capture antibodies specific to the analyte of interest bound to linkers specific to unique spots in each well of a 96-well plate. Serum samples, assessed in duplicate, were diluted 8-fold to quantify CXCL9, CXCL10, CXCL11 and IL-18 in a U-plex assay, diluted 10-fold to quantify IL-12B in a U-plex assay, and diluted 5-fold to quantify IFNγ, TNFα and IL-6 in the S-plex assay. Samples were incubated on linker/capture antibody-coated plates, followed by detection with a sulfo-tag-labelled antibody for the U-plex assays and a TURBO-tag-labelled antibody for the S-plex assay. For the S-plex assay, additional steps incorporated in the manufacturer's protocol to amplify signal with enhance solution and detection solution were followed. Following addition of read buffer, the electrochemiluminescent signal was measured on a MESO Sector S 600 instrument. Between each step of the protocol plates were washed with 0.05% Tween-PBS. A standard curve was generated for each plate using a 4-parameter logistic fit with 1/y^2 weighting. Cytokine concentrations in samples were interpolated using the standard curve, allowing quantification of the analyte of interest. Fold change from baseline was calculated as a ratio of the cytokine concentration at C2D1 over the cytokine concentration at baseline. A linear mixed model performed on log transformed raw cytokine values with baseline values as covariates assessed the difference in cytokine levels over time and between treatment groups.
Kaplan-Meier survival plots using progression-free survival data and cytokine concentrations were generated in the Jmp software, and hazard ratios were calculated between patient groups of interest. Comparisons were made for each analyte between zimberelimab monotherapy and domvanalimab combination groups both at baseline and using the fold change at C2D1 using median values to stratify patients in to low and high cytokine groups. Stratifying subjects by baseline cytokine expression (e.g., CXCL9, CXCL10, CXCL11, LL-6, TNFα) around the median value (high vs. low) enriched for clinical benefit with the addition of domvanalimab. Baseline reference values derived from the biomarker evaluable population (BEP) are as follows (high is ≥reference value, and low is <reference value): CXCL9: 278.7 pg/mL; CXCL10: 445.4 pg/mL; CXCL11:104.2 pg/mL; L-6: 15550 fg/mL; TNFα: 1194 fg/mL. Induction reference values derived from the BEP are as follows (high is ≥reference value, and low is <reference value): CXCL9: 1.76 fold change; CXCL10: 1.52 fold change; […]: 1.14 fold change IL-18: 1.1 fold change; IFNγ: 1.23 fold change.

B1: zimberelimab (antibody, chains of the INN, looked up, V domains shown)
VH: QLQLQESGPGLVKPSETLTLTCTVSADSISSTTYYWVWIRQPPGKGLEWIGSISYSGSTYYNPSLKSRVTVSVDTSKNQFSLKLNSVAATDTALYYCARHLGYNGRYLPFDYWGQGTLVTVSS
VL: QSALTQPASVSGSPGQSITISCTGTSSDVGFYNYVSWYQQHPGKAPELMIYDVSNRPSGVSDRFSGSKSGNTASLTISGLQAEDEADYYCSSYTSISTWVFGGGTKLTVL
notes: zimberelimab monotherapy 360 mg IV Q3W; anti-PD-1 antibody
Work on B1 yielded a PFS (BEP (fold change from baseline to C2D1)) of 5.7 mo, a PFS (BEP for cytokine analysis (baseline samples)) of 5.6 mo and a PFS (CXCL9 High Induction at C2D1 (≥1.76 fold change)) of 2.7 mo. The PFS (CXCL9 High at Baseline (≥278.7 pg/mL)) was 4 mo, the PFS (CXCL9 Low Induction at C2D1 (<1.76 fold change)) was 9.7 mo and the PFS (CXCL9 Low at Baseline (<278.7 pg/mL)) was 7.6 mo. It also gave a PFS (CXCL10 High Induction at C2D1 (≥1.52 fold change)) of 2.7 mo, a PFS (CXCL10 High at Baseline (≥445.4 pg/mL)) of 5.4 mo and a PFS (CXCL10 Low Induction at C2D1 (<1.52 fold change)) of 11.7 mo. The PFS (CXCL10 Low at Baseline (<445.4 pg/mL)) was 7.6 mo, the PFS (CXCL11 High at Baseline (≥104.2 pg/mL)) was 4.9 mo and the PFS (CXCL11 Low at Baseline (<104.2 pg/mL)) was 5.6 mo. It also gave a PFS (IFNγ High Induction at C2D1 (≥1.23 fold change)) of 4.5 mo, a PFS (IFNγ Low Induction at C2D1 (<1.23 fold change)) of 11.7 mo and a PFS (IL-6 High at Baseline (≥15550 fg/mL)) of 1.8 mo. The PFS (IL-6 Low at Baseline (<15550 fg/mL)) was 9.6 mo, the PFS (IL-12B High Induction at C2D1 (≥1.14 fold change)) was 9.6 mo and the PFS (IL-12B Low Induction at C2D1 (<1.14 fold change)) was 2.5 mo. The PFS (IL-18 High Induction at C2D1 (≥1.1 fold change)) was 5.7 mo, the PFS (IL-18 Low Induction at C2D1 (<1.1 fold change)) was 4.5 mo and the PFS (TNFα High at Baseline (≥1194 fg/mL)) was 3.5 mo. It also gave a PFS (TNFα Low at Baseline (<1194 fg/mL)) of 5.7 mo.
